# T1: GST-Kxd1 (S. cerevisiae, UniProt P53158 1-218)
# T1 sequence (looked up): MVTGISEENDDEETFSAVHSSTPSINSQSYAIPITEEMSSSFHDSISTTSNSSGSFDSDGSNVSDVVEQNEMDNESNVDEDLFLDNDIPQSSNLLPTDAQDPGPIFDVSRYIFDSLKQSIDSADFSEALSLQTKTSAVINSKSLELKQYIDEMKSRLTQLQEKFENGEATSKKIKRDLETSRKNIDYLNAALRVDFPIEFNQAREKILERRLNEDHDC
# B1: HS-Cnl1 (natural protein, S. cerevisiae, UniProt Q06333 1-122, looked up)
# chain: MQDNSSHSRESASAGDDPLGIDKLTVDYDYLLYKMRDYVQSIQLDTTELCKKQNEVMVNGIIENTIDKNIAKFKELLEKCDTLENHYEMLNQLAIITDTFKERIAEAVNNYNSLKKGASKSK
# B2: Vab2-GST (natural protein)
# chain: MVADLTKGILKWKSRIEFDAVGSSSYYEELKGLPPLASHKKLTQAAIFNSTKYELLQVKKDILSIYEVVSRDIDEERNQMQQIELQLKKSLKKVEHSYKNVLKQRASTNCINGNDRLLANAEKKIGSLNEELACVNDIVSDIVNNLTALNANLPKKAQLLKDDSINVAHYPLLFDFLHKSCPKSIIATSEASIHENASPSPLLEHDELPAESINSFYGENELQSDSLAPLQTHDDNISSCKKILPPKFNTTSGPSIETNFENISADGLTYTKCSLKNSISLT
# How the values were obtained:
# Assay in all cases: pull-down
# GST-Kxd1 = biological target: T1, GST-Kxd1
# HS-Snn1 = HS-Snn1 (S. cerevisiae, UniProt P48232 1-102)
# GST-Snn1 = GST-Snn1 (S. cerevisiae, UniProt P48232 1-102)
# Vab2-GST = biological target: B2
# HS-Cnl1 = biological target: B1
binder,measurement,setting,value
B1,binding result,GST-Kxd1,binds
B2,binding result,HS-Snn1,binds
"HS-Bli1 (natural protein, S. cerevisiae, UniProt P35727 1-113, looked up) MGEQNKLYYDVEKLVNSLQESFDLDCAQSVSLFTSKSRSNEAWLEELENKFKLKDDVELDDVENLRAEIDMKLNMLEDKVSYYERLYKELEEFQNEIKIKTVVNNRRQSRTPK",binding result,GST-Snn1,binds
same,binding result,Vab2-GST,binds
"GST-Bli1 (natural protein, S. cerevisiae, UniProt P35727 1-113, looked up) MGEQNKLYYDVEKLVNSLQESFDLDCAQSVSLFTSKSRSNEAWLEELENKFKLKDDVELDDVENLRAEIDMKLNMLEDKVSYYERLYKELEEFQNEIKIKTVVNNRRQSRTPK",binding result,HS-Cnl1,binds
